Data on three molecules can be found in patent publication EP2072528A1 (Labeit, a person, dated 2009).

The labels stand for the following.
B3: human MuRF1 polypeptide (muscle ring finger 1), full length (enzyme)
chain: MENLEKQLICPICLEMFTKPVVILPCQHNLCRKCANDIFQAANPYWTSRGSSVSMSGGRFRCPTCRHEVIMDRHGVYGLQRNLLVENIIDIYKQECSSRPLQKGSHPMCKEHEDEKINIYCLTCEVPTCSMCKVFGIHKACEVAPLQSVFQGQKTELNNCISMLVAGNDRVQTIITQLEDSRRVTKENSHQVKEELSQKFDTLYAILDEKKSELLQRITQEQEEKLSFIEALIQQYQEQLDKSTKLVETAIQSLDEPGGATFLLTAKQLIKSIVEASKGCQLGKTEQGFENMDFFTLDLEHIADALRAIDFGTDEEEEEFIEEEDQEEEESTEGKEEGHQ
notes: Full length bait in the yeast two-hybrid screens; also called TRIM63; RNF28

Experiment [1] concerns the target B3. The experiment in a line: yeast two-hybrid, full length bait.
In experiment [2] the target is B3. In words: yeast two-hybrid.
The target of experiment [3] is ENO3 (NP_443739.2) (human, UniProt P13929 1-434, limits assumed). The experiment in a line: yeast two-hybrid.
Sequence of ENO3 (NP_443739.2) (P13929 whole entry): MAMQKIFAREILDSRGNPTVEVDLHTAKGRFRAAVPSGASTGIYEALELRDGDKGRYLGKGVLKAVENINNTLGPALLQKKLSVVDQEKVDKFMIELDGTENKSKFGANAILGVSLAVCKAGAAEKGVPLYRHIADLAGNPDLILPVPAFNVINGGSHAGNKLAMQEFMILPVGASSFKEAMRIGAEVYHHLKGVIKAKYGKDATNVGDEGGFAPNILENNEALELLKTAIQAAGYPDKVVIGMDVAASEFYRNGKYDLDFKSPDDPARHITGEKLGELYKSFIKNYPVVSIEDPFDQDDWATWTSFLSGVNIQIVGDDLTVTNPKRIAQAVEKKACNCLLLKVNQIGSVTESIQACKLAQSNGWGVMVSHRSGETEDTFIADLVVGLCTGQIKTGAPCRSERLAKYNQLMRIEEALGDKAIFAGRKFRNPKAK
Experiment [4] concerns the target T1, EEF1G (NP_001395.1) (human, UniProt P26641 1-437, limits assumed).
T1 construct: also called translation initiation factor EEF1G
The experiment in a line: yeast two-hybrid, full length bait.

Experiment [5] addresses T2, sequestosome-1 (NP_003891.1) (human, UniProt Q13501 1-440, limits assumed).
T2 construct: also called SQSTM1
The experiment in a line: yeast two-hybrid, full length bait.

T1 sequence (P26641 whole entry): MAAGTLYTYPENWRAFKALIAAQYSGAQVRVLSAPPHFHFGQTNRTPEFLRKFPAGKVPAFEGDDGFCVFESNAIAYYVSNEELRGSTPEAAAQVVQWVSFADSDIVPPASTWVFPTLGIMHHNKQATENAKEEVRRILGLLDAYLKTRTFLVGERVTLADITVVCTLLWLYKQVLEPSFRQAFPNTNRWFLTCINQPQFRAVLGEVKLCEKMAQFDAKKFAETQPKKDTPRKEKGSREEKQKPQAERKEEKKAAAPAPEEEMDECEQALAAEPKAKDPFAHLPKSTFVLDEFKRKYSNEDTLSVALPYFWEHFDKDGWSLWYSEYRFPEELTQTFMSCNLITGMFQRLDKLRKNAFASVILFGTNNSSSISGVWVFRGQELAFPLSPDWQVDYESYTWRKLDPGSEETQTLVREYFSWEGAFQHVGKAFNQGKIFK

B1: FHL2 (NP_963851.2) (other, human, UniProt Q14192 1-279, looked up)
chain: MTERFDCHHCNESLFGKKYILREESPYCVVCFETLFANTCEECGKPIGCDCKDLSYKDRHWHEACFHCSQCRNSLVDKPFAAKEDQLLCTDCYSNEYSSKCQECKKTIMPGTRKMEYKGSSWHETCFICHRCQQPIGTKSFIPKDNQNFCVPCYEKQHAMQCVQCKKPITTGGVTYREQPWHKECFVCTACRKQLSGQRFTARDDFAYCLNCFCDLYAKKCAGCTNPISGLGGTKYISFEERQWHNDCFNCKKCSLSLVGRGFLTERDDILCPDCGKDI
Turning to B1, the binding result in experiment [1] is “binds”.

B2: FABP4 (NP_001433.1) (other, human, UniProt P15090 1-132, looked up)
chain: MCDAFVGTWKLVSSENFDDYMKEVGVGFATRKVAGMAKPNMIISVNGDVITIKSESTFKNTEISFILGQEFDEVTADDRKVKSTITLDGGVLVHVQKWDGKSTTIKRKREDDKLVVECVMKGVTSTRVYERA
As for B2, the binding result in experiment [2] is “binds”.

In the case of B3, the binding result in experiment [3], in experiment [4] and in experiment [5] was “binds” each time.
